Data on one protein can be found in article PMC5719984, “The Structure of a Conserved Domain of TamB Reveals a Hydrophobic β Taco Fold” (Structure(London, England:1993), 2017).

The series concerns the molecule itself. The series is described as follows: SEC-MALS; 100 μl samples at 1-5 mg/ml on Superdex 200 10/300 GL in 20 mM Tris, 200 mM NaCl, 0.05 % LDAO pH 7.9, 0.6 ml/min. (In general: Size exclusion chromatography separates by hydrodynamic size, large species first.)

B1: TamB_(963-1138) (domain or fragment, E. coli K12, UniProt P39321 963-1138, looked up)
chain: MDVSPDVVFEATPNLFTLDGRVDVPWARIVVHDLPESAVGVSSDVVMLNDNLQPEEPKTASIPINSNLIVHVGNNVRIDAFGLKARLTGDLNVVQDKQGLGLNGQINIPEGRFHAYGQDLIVRKGELLFSGPPDQPYLNIEAIRNPDATEDDVIAGVRVTGLADEPKAEIFSDPAM
notes: whole TamB has 1,259 amino acids; Cloned into pET-21a via NdeI and XhoI; A selenomethionine-labelled form was used for phasing only; Construct as described by Josts et al., 2014
Take B1: the “stoichiometry N” value came to 2.

In general, stoichiometry N refers to a count of units in the complex or per binding partner.
